Non-standard residues stand in square brackets, D forms with d. No end group written: not given here. pY = N[C@@H](Cc1ccc(OP(=O)(O)O)cc1)C(=O)O
How the values were obtained:
STAT6 = target: T1, STAT6 (Homo sapiens, UniProt P42226); assay: SH2 domain protein binding assay, STAT6; design: key: +++ = high affinity binding
T1 sequence (P42226 1-847): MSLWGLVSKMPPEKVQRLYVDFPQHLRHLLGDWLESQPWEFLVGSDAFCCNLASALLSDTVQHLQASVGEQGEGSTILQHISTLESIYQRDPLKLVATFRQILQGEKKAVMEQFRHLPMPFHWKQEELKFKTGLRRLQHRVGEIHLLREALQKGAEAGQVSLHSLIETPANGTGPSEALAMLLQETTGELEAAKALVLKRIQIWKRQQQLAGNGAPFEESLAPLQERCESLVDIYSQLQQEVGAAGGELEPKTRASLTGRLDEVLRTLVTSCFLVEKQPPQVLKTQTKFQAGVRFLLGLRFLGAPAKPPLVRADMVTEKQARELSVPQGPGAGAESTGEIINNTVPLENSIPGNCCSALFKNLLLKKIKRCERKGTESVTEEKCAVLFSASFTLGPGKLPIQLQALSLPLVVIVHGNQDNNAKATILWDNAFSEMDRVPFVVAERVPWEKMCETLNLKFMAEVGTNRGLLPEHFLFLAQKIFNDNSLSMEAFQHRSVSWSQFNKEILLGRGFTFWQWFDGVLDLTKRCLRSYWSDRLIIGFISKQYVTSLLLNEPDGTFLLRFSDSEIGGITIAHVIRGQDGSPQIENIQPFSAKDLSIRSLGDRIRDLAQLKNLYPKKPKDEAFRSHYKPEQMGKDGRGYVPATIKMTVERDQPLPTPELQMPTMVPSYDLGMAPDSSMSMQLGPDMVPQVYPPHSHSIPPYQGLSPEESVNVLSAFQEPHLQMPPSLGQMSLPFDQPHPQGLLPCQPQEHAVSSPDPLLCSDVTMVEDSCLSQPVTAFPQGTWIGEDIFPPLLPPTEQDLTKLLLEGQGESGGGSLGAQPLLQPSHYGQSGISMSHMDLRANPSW
Excerpt: (§1) This Example describes binding assays for various proteins that contain SH2 domains.

Src = Src (Homo sapiens, UniProt P12931); assay: SH2 domain protein binding assay, Src; design: key: +++ = high affinity binding
Excerpt: as §1

PLCγ = assay: SH2 domain protein binding assay, PLCγ; design: key: +++ = high affinity binding
Excerpt: as §1

Ras-GAP = target: T2, Ras-GAP (Homo sapiens, UniProt P20936); assay: SH2 domain protein binding assay, Ras-GAP; design: key: +++ = high affinity binding
T2 sequence (P20936 1-1047): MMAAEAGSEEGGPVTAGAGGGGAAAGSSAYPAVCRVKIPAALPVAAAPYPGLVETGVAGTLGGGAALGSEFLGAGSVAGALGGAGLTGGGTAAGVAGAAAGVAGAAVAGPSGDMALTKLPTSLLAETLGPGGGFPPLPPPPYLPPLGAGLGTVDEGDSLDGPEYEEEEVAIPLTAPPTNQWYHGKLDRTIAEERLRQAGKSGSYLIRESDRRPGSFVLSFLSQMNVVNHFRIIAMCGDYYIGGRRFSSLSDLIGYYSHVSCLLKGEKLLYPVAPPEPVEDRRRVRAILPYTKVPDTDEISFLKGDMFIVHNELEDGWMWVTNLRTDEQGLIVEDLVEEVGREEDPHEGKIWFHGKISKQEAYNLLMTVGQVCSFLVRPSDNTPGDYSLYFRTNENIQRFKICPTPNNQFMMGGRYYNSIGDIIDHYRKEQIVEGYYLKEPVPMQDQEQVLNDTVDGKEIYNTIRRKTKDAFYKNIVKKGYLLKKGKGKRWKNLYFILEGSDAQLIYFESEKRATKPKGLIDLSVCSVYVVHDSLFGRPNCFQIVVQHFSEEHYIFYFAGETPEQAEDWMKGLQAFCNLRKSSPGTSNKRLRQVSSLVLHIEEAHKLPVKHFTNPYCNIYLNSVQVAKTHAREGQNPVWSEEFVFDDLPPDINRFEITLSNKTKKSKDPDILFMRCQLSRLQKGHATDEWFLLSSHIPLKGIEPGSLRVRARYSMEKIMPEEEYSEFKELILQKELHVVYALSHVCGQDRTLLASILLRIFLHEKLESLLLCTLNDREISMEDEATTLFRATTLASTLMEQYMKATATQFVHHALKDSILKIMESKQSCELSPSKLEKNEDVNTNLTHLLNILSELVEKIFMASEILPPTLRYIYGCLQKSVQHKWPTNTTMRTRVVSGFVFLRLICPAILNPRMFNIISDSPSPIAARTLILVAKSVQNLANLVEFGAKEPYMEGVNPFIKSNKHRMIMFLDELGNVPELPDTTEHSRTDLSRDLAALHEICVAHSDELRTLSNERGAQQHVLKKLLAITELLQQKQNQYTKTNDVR
Excerpt: as §1

P85-PI3K = P85-PI3K (Homo sapiens, UniProt P27986); assay: SH2 domain protein binding assay, P85-PI3K; design: key: +++ = high affinity binding
Excerpt: as §1

Syp = target: T3, Syp (Homo sapiens, UniProt Q06124); assay: SH2 domain protein binding assay, Syp; design: key: +++ = high affinity binding
T3 sequence (Q06124 1-593): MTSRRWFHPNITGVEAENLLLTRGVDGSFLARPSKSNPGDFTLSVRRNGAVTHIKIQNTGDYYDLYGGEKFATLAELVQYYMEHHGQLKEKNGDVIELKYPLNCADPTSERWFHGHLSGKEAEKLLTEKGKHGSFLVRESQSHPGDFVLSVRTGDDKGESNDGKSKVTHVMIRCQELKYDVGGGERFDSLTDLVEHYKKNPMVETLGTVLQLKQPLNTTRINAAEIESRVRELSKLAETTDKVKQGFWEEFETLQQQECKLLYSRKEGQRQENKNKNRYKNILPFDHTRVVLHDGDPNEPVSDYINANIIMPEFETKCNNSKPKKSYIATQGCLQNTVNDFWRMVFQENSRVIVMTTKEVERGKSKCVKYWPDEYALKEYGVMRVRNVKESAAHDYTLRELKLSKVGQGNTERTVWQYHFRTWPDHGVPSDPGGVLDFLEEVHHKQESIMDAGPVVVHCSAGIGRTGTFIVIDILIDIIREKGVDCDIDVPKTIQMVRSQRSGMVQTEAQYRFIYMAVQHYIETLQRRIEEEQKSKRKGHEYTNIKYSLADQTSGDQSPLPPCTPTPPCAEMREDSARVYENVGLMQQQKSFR
Excerpt: as §1

STAT1 protein [1] = target: T4, STAT1 protein (UniProt P42224 1-750, limits assumed); assay: concentration at 50% binding of the STAT protein to the phosphotyrosine peptide (Example 4)
T4 sequence (looked up): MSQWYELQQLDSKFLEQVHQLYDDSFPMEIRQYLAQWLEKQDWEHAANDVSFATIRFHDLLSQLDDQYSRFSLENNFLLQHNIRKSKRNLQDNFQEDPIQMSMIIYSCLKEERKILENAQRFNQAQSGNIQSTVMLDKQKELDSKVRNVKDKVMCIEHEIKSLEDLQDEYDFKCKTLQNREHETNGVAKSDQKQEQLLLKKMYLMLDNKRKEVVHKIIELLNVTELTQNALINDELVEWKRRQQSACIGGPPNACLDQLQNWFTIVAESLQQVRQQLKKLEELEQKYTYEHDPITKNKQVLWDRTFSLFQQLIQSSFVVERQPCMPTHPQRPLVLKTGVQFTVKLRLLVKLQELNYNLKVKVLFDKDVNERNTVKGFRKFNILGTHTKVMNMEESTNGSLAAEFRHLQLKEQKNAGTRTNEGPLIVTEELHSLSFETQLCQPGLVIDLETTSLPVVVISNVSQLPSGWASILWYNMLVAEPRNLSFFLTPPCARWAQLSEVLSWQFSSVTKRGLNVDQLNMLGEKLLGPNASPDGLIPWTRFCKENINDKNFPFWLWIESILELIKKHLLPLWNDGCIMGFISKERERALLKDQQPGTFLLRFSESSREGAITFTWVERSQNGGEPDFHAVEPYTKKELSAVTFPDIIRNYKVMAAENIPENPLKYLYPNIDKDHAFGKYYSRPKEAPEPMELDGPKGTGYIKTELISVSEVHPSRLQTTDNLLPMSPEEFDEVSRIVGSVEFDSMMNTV

STAT4 = target: T5, STAT4 (UniProt Q14765 1-748, limits assumed); assay: as above
T5 construct: also called STAT4 polypeptide
T5 sequence (looked up): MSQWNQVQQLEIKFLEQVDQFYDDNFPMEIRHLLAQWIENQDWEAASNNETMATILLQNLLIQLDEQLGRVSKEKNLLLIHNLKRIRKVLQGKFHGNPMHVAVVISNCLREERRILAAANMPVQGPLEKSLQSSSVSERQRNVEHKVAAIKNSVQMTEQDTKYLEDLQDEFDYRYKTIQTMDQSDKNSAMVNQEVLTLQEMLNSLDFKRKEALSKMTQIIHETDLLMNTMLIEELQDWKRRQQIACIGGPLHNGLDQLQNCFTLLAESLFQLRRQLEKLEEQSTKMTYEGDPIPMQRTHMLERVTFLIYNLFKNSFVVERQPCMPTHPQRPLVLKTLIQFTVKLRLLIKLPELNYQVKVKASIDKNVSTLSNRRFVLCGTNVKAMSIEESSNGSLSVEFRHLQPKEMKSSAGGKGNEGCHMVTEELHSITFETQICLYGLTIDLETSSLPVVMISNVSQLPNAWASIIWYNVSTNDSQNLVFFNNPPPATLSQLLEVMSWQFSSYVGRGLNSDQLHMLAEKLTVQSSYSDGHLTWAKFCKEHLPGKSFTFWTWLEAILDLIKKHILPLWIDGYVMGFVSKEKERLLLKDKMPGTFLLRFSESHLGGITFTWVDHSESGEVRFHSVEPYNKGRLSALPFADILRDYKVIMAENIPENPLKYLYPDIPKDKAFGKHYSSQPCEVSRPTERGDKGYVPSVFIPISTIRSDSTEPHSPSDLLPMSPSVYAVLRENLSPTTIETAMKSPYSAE

STAT1 protein [2] = target: T4, STAT1 protein; assay: method not stated; told of the SH2 domain of STAT1 at the start of Example 1

Chain of P85-PI3K (P27986 whole entry, the tested form may be a part): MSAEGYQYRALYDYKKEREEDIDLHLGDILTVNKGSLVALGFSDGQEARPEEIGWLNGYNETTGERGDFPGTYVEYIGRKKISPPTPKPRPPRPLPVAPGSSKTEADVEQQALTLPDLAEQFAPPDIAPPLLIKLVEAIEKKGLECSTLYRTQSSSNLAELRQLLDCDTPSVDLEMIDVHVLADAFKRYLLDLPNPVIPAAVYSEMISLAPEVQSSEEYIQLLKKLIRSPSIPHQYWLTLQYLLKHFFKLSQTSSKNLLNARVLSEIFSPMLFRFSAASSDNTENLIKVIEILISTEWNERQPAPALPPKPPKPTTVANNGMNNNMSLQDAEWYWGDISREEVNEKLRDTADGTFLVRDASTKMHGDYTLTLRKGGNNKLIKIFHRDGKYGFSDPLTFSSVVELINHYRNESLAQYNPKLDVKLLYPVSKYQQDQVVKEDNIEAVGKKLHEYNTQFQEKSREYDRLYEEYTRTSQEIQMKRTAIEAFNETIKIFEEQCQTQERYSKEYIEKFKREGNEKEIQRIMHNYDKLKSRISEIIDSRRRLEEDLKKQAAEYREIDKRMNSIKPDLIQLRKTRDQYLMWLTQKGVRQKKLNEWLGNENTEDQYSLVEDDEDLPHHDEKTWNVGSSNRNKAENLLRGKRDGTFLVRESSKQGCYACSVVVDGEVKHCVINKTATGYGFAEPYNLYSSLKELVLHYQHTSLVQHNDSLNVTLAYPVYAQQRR

GYKPFQDLI (G[pY]KPFQDLI) [phosphotyrosine-containing peptide ligand, Y is phosphotyrosine]
binding to STAT6 (STAT6): +++

YEEI: phosphotyrosine-containing peptide ligand
binding to Src (Src): +++

YITPLP: phosphotyrosine-containing peptide ligand ([pY]ITPLP)
binding to PLCγ (PLCγ): +++

YMAP: phosphotyrosine-containing peptide ligand ([pY]MAP)
binding to Ras-GAP (Ras-GAP): +++

YMDM: phosphotyrosine-containing peptide ligand ([pY]MDM)
binding to P85-PI3K (P85-PI3K): +++

YMNM: phosphotyrosine-containing peptide ligand ([pY]MNM)
binding to P85-PI3K (P85-PI3K): +++

YTAVQP: phosphotyrosine-containing peptide ligand ([pY]TAVQP)
binding to Syp (Syp): +++

SFG[pY]DKPHVL [SFGY*DKPHVL]
IC50 (STAT1 protein [1]): 600 nM
IC50 (STAT4): 10 µM

G[pY]DKPHVL [interferon-γ receptor-derived peptide sequence GY^PDKPHVL]
Kd (STAT1 protein [2]): ~120 nM
